The target in assay [1] is TIGIT on human CMV pp65-specific CD8+ T cells (human) (UniProt Q495A1). Description: flow cytometry on CMV pp65-specific CD8+ T cells, day 11, against an isotype control.
The target in assay [2] is T1, Human TIGIT-HIS monomer (Sino Biological) (human, UniProt Q495A1 22-141).
T1 construct: Bought protein; also called TIGIT-His (Sino Biological cat #10917-H08H); biotinylated TIGIT-His; not shown: His tag
T1 sequence (looked up): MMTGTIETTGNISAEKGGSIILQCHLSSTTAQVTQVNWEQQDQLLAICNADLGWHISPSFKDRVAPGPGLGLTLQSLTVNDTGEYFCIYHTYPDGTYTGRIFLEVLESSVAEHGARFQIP
Description: SPR (ProteOn XPR 36, 22 C); BsAb captured on anti-human Fc, TIGIT-HIS monomer as analyte; value fixed, not fitted, because too little dissociation was seen in 15 min.

For assay [3], the target named is T2, PVRIG on human CMV pp65-specific CD8+ T cells (human, UniProt Q6DKI7 41-326).
T2 sequence (looked up): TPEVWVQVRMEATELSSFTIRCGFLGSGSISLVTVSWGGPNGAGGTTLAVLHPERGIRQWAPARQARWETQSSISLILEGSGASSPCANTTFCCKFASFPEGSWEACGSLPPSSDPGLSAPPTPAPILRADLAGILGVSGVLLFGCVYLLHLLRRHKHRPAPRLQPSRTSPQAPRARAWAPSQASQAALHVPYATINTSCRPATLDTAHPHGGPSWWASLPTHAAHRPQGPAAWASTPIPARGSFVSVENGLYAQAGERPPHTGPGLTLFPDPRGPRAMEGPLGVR
The assay can be described thus: cell-based or functional assay.

Assay [4] deals with T3, TIGIT on human CMV pp65-specific CD8+ T cells (human, UniProt Q495A1 22-244).
T3 sequence (looked up): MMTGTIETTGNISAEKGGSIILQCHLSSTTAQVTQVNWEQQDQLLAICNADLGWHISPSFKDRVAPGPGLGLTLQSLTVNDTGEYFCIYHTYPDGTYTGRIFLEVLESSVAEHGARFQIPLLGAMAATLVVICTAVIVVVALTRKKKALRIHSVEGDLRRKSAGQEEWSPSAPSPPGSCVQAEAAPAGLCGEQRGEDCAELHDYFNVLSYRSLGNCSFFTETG
Description: cell-based or functional assay.

In assay [5] the target is T4, Human PVRIG-HIS (prepared in-house) (human, UniProt Q6DKI7 41-171, limits assumed).
T4 construct: In-house protein; also called PVRIG-His (Compugen, lot 20170623); biotinylated PVRIG-His; not shown: His tag
T4 sequence (looked up): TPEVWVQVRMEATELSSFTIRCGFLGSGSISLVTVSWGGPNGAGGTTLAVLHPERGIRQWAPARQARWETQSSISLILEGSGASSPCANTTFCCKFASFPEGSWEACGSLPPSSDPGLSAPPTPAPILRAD
Description: SPR (ProteOn XPR 36, 22 C); BsAb captured on anti-human Fc, PVRIG-HIS as analyte, 1:1 fit.

Assay [6] deals with T1, Human TIGIT-HIS monomer (Sino …). Description: SPR (ProteOn XPR 36, 22 C); BsAb captured on anti-human Fc, TIGIT-HIS monomer as analyte; kd/ka with kd held constant; rough estimate.
Assay [7] shares this target. The assay can be described thus: SPR (ProteOn XPR 36, 22 C); BsAb captured on anti-human Fc, TIGIT-HIS monomer as analyte, 1:1 fit with kd held constant; rough estimate.

The koff is a measure of how fast the partners let go of each other. A higher koff goes with a short-lived complex. What is called Kd is the equilibrium constant for the complex coming apart. One may read the kon as the second-order rate constant of association.

Take “anti-TIGIT (clone: MBSA43)-allophycocyanin (APC; e-Bioscience) (antibody)”: the MFIr (MFI of target antibody divided by MFI of control antibody) in assay [1] was determined as 4 fold.

B1: CHA.7.518.1.H4(S241P)/CPA.9.086 bispecific antibody (bispecific antibody, human IgG4 S228P, kappa, lambda)
heavy 1: QVQLVQSGAEVKKPGASVKVSCKASGYTFTDYNINWVRQAPGQGLEWMGYIYPYIGGSGYAQKFQGRVTMTRDTSTSTVYMELSSLRSEDTAVYYCAREDKTARNAMDYWGQGTLVTVSSASTKGPSVFPLAPCSRSTSESTAALGCLVKDYFPEPVTVSWNSGALTSGVHTFPAVLQSSGLYSLSSVVTVPSSSLGTKTYTCNVDHKPSNTKVDKRVESKYGPPCPPCPAPEFLGGPSVFLFPPKPKDTLMISRTPEVTCVVVDVSQEDPEVQFNWYVDGVEVHNAKTKPREEQFNSTYRVVSVLTVLHQDWLNGKEYKCKVSNKGLPSSIEKTISKAKGQPREPQVYTLPPCQDELTKNQVSLWCLVKGFYPSDIAVEWESNGQPENNYKTTPPVLDSDGSFFLYSRLTVDKSRWQEGNVFSCSVMHEALHNHYTQKSLSLSPGK
light 1: DIQMTQSPSSLSASVGDRVTITCRVSENIYSNLAWYQQKPGKAPKLLIYEATNLAEGVPSRFSGSGSGTDFTLTISSLQPEDFATYYCQHFWGTPYTFGQGTKLEIKRTVAAPSVFIFPPSDEQLKSGTASVVCLLNNFYPREAKVQWKVDNALQSGNSQESVTEQDSKDSTYSLSSTLTLSKADYEKHKVYACEVTHQGLSSPVTKSFNRGEC
heavy 2: EVQLVETGGGLIQPGRSLRLSCAASGFTFSSYAMHWVRQAPGKGLEWVAVISYAGEVKYYADSVKGRFTISRDNSKNTLYLQMNSLRAEDTAVYYCARDPLPLHYYGMDVWGQGTTVTVSSASGQPKAAPSVTLFPPSSEELQANKATLVCLISDFYPGAVTVAWKADSSPVKAGVETTTPSKQSNNKYAASSYLSLTPEQWKSHRSYSCQVTHEGSTVEKTVAPTECSESKYGPPCPPCPAPEFLGGPSVFLFPPKPKDTLMISRTPEVTCVVVDVSQEDPEVQFNWYVDGVEVHNAKTKPREEQFNSTYRVVSVLTVLHQDWLNGKEYKCKVSNKGLPSSIEKTISKAKGQPREPQVCTLPPSQDELTKNQVSLSCAVKGFYPSDIAVEWESNGQPENNYKTTPPVLDSDGSFFLVSRLTVDKSRWQEGNVFSCSVMHEALHNHYTQKSLSLSPGK
light 2: QSALTQPRSASGNPGQRVTISCSGSSSNMGRRPVNWYQQIPGTAPKLLIYSQNQRPSGVPDRFSGSQSGTSASLTISGLQSEDEAEYFCAVWDDIGRVLQLGGGTQLAVLSSASTKGPSVFPLAPSSKSTSGGTAALGCLVKDYFPEPVTVSWNSGALTSGVHTFPAVLQSSGLYSLSSVVTVPSSSLGTQTYICNVNHKPSNTKVDKKVEPKSC
notes: also called CHA.7.518.1.H4(S241P)/CPA.9.086 BsAb; TIGIT-PVRIG Bispecific antibody
Regarding B1, the koff in assay [2] is no more than 1e-05 s⁻¹; in assay [5], 0.00024 s⁻¹. Besides, the “IFN-γ production EC50, donor 4 (both receptors blocked)” value in assay [3] and in assay [4] was 0.36 nM each time. The “IFN-γ production EC50, donor 72 (both receptors blocked)” value in assay [3] and in assay [4] was 0.53 nM each time. Besides, the Kd in assay [5] is 0.187 nM; in assay [6], no more than 0.0026 nM. Further, the values for the kon in assay [5] and in assay [7] were 1.3e+06 M⁻¹ s⁻¹ and 3.9e+06 M⁻¹ s⁻¹, respectively.
